The values below are quoted from earlier work in paper PMC2853182.

This series has as its target Protective antigen (PA) (Bacillus anthracis) (UniProt P13423).

Regarding “CMG2 soluble domain (from UniProt P58335)”, the Kd is 2 nM.
